The target in one test is T1, human serum albumin (human, UniProt P02768 25-609).
T1 construct: also called HSA
The experiment in a line: column 'Antigen recognized by antibody'.

Test [1] addresses humanized mouse mAb to CD40. Briefly: BIAcore. Background: In SPR one partner is held on a chip, and binding of the other changes the refractive index at the surface.
The target of another test is β-lactamase. The experiment in a line: BIAcore.
The target in test [2] is T2, Prostate Specific Antigen (UniProt P07288 25-261).
T2 construct: also called PSA
T2 sequence (P07288 25-261 limits assumed): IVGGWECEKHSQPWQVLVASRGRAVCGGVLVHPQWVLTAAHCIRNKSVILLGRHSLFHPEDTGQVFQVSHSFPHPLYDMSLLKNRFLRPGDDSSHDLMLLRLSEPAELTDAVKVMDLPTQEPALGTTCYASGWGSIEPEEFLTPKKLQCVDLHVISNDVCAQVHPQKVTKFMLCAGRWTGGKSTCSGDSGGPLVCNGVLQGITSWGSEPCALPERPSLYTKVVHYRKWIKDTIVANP
Briefly: BIAcore.

In test [3] the target is T3, TEM1 (UniProt P62593 24-286).
T3 construct: also called β-lactamase; b-lactamase
T3 sequence (P62593 24-286 limits assumed): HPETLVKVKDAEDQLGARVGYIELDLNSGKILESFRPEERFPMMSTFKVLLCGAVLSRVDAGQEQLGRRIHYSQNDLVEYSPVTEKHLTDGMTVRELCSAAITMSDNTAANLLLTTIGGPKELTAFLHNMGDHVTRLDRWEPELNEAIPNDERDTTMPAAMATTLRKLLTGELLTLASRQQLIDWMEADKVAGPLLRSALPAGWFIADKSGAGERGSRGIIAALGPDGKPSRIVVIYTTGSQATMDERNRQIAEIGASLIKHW
Briefly: column 'Antigen recognized by antibody'.

Test [4] has as its target T3, TEM1. The experiment in a line: IMAC co-purification, Coomassie stained PAGE.
The target of test [5] is T4, Carcino Embryonic Antigen (UniProt P06731 35-685, limits assumed).
T4 construct: also called CEA; CEA tumor antigen
T4 sequence (looked up): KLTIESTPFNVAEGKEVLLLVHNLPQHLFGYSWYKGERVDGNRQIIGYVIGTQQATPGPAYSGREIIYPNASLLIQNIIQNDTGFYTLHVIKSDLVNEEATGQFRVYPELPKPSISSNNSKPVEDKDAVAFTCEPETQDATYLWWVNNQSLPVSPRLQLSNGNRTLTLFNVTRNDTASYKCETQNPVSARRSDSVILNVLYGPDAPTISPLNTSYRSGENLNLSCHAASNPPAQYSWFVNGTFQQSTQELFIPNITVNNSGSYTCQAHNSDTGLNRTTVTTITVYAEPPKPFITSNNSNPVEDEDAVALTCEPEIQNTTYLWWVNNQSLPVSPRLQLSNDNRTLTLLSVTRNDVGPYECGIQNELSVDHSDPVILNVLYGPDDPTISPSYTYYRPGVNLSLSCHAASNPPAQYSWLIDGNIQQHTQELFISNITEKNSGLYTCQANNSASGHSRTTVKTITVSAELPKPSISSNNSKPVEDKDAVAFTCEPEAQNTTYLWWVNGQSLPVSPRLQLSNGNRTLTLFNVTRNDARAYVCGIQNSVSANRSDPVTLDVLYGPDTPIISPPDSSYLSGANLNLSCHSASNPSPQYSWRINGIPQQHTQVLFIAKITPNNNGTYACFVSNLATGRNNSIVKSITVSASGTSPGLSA
Briefly: column 'Antigen recognized by antibody'.

Test [6] addresses T2, Prostate Specific Antigen. The experiment in a line: column 'Antigen recognized by antibody'.
For test [7], the target named is T4, Carcino Embryonic Antigen. The experiment in a line: ELISA on coated CEA.
Method: A microtiter plate (Maxisorp, NUNC) was coated overnight at 4° C. with CEA (Scripps) at a concentration of 1 μg/ml (in PBS), and blocked for two hours at room temperature (RT) with 300 μl 1% casein in PBS. The plates were washed three times with PBS-tween. […] Plates were washed six times with PBS-tween, after which binding of VHH was detected by incubation with mouse anti-Histidine mAB (Serotec; 1:1000 diluted; 100 μl/well) for 1 hour at RT followed by anti-mouse-alkaline phosphatase conjugate (Sigma, 1:2000 diluted), also for 1 hour at RT. Staining was performed with the substrate PNPP (p-nitrophenyl-phosphate, 2 mg/ml in 1M diethanolamine, 1 mM Mg₂SO₄, pH9.8) and the signals were measured after 30 minutes at 405 nm.

A value given as a limit tells only on which side of the number the result lay.

T1 sequence (P02768 25-609 limits assumed): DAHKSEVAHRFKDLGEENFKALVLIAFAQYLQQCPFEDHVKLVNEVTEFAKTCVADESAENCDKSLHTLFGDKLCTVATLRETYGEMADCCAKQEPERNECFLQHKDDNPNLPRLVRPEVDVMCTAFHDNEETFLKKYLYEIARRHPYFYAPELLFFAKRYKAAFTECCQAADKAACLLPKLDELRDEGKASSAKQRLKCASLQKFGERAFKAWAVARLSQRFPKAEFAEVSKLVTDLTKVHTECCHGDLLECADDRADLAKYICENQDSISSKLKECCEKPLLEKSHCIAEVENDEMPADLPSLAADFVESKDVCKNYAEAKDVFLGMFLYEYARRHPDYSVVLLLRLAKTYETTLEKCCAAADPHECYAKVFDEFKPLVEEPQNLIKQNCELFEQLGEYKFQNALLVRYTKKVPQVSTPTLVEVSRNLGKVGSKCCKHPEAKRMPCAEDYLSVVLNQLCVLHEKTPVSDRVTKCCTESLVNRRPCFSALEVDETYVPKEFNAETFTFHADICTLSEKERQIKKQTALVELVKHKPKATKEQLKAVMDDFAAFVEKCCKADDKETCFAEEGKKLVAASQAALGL

B1: ALB-4 (VHH)
VHH: QVQLQESGGGLVQPGNSLRLSCAASGFSFRSFGMSWVRQAPGKGPEWVSSINSSGDDTRYTDSVKGRFTISRDNAKSTLYLQMNSLKPEDTAVYYCTIGSSISRSSQGTQVTVSS
notes: Llama single domain; purified on Ni-NTA
As for B1, in the test with human serum albumin, the binding result is “binds”.

B2: CD40-1 (VHH)
VHH: QVQLVESGGGLVQPGGSLRLSCAASGFAFSRYSMYWVRQAPGKGLEWVSEIYPDGNGWYTSSVKGRFTISRDNDKNMLYLQMNSLKPDDTAVYYCALSRSGQGRGQGTRVTVSS
Usually Kd stands for the constant that tells how readily two partners part at equilibrium. Low readings indicate tighter binding, high ones weaker binding. The molecule B2 returned a Kd in [1] of 2 nM.

B3: cAbBLA01 (VHH)
VHH: QLQLVESGGGSVQSGGSLRLSCKVSGYIGSTNCMGWFRQAPGKEREGVASLFTGSGNTYYGDSVKGRFTISEDNAKNTVSLQMNSLKPEDTAMYYCASSSNVGSDESCGRKNTRQFVYTYQGQGTQVTVSS
B3 showed a Kd with β-lactamase of under 1 nM.

B4: N8-B (VHH)
VHH: DVQLQESGGGLVQPGGSLRLSCAASGFLFSDTYMTWARQAPGKGLEWLGGISKDGSGTLYEDSVEGRFTISRDNAKNTLYLQMNSLKSEDTALYYCSTGALLPTRPQGQGTQVTVSS
notes: Dromedary single domain; purified on Ni-NTA
The molecule B4 showed a Kd in [2] of 1.6 nM.

B5: C12-A (VHH)
VHH: DVQLQESGGGLVRPGGSLRLSCAASGFLFSGTYMTWARQAPGKGLEWLCGINKDGSGTLYADSVEGRFTCSRDNAKNTLYLQMNSLKSEDTALYYCSTGALLPTRPQGQGTQVTVSS
notes: as for B4
On to B5, for which binding in test [2] was put at a Kd of 2.6 nM.

B6: anti-β-lactamase VHH TEM04 (wild type) (VHH)
VHH: QVQLVESGGGLVQAGGSLRLSCAASGFTFSSAWMTWVRQAPGKGLEWVTSIATDGSTDYADSVKGRFTISRDNAKNTLYLQLNSLNTEDTAVYYCAKDRWGYVVRGQGTQVTVSS
notes: also called cAbTEM04
Regarding B6, the binding result with TEM1 [3] is “binds”.

B7: anti-β-lactamase VHH TEM04 R103W mutant (VHH)
VHH: QVQLVESGGGLVQAGGSLRLSCAASGFTFSSAWMTWVRQAPGKGLEWVTSIATDGSTDYADSVKGRFTISRDNAKNTLYLQLNSLNTEDTAVYYCAKDRWGYVVWGQGTQVTVSS
notes: also called VHH TEM04 mutant; TEM04 W (mutant)
Regarding B7, the binding result with TEM1 [4] is “binds”.

B8: ALB-3 (VHH)
VHH: QVQLQESGGGLVQPGNSLRLSCAASGFAFGNFGMSWVRQAPGKEPEWVSSIDSIGSDTLYADFVKGRFTISRDNAKSTLYLQMNSLKPEDTAVYYCTIGGSLSRSSQGTQVTVSS
notes: as for B1
B8: the binding result with human serum albumin was “binds”.

B9: C1-B (VHH)
VHH: DVQLQESGGGLVQPGGSLRLSCAASGFTFSTSYMTWARQAPGKGLEWVSGINRDGNNPLYADSVEGRFTVSRDNAKNTLYLQMNSLKSEDTALYYCVAGALVAGARGQGTQVTVSS
notes: as for B4
The molecule B9 displayed a dissociation constant Kd in test [2] of 0.8 nM.

B10: CEA1 (VHH)
VHH: QVQLVESGGGLVQPGGSLRLSCAASGFTFSKYDMSWVRQAPGKGLEWVSRISSGGGSTYYADSVKGRFTISRDNAKNTLYLQMNSLKPEDTAVYYCATPTYSSDYRGLPPGQGTQVTVSS
notes: as for B4
With B10, the binding result in [5] was “binds”.

B11: C9-B (VHH)
VHH: DVQLQESGGGLVQPGGSLRLSCAASGFTFSNHYMTWVRQAPGKGLEWVSVISNDGRYTDYADSVKGRFTISRDNAKNTLYLQMNSLKTEDTALYTCVRGYYLTNLPAGDRGQGTQVTVSS
notes: as for B4
On to B11, for which the affinity in [2], expressed as Kd, was 3.9 nM.

B12: C24-A (VHH)
VHH: DVQLQESGGGLVQPGGSLRLSCAASGFAFTPSYMSWVRQAPGKGLEWVSVISNDGRYTDYADSVKGRFTISRDNAKNTLYLQMNSLKTEDTALYTCVRGYYLTNLPAGDRGQGTQVTVSS
notes: as for B4
Take B12: in test [6], the binding result is “binds”.

B13: ALB-2 (VHH)
VHH: QVQLQESGGGLVQPGGSLRLTCTASGFAFSNFGMSWVRQPPGKGLEWVSAISADSSTKNYADSVKGRFTISRDNTKKMLYLEMNSLKPEDTAVYHCVIGRGSASSQGTQVTVSS
notes: as for B1
With B13, the binding result with human serum albumin is on record as “binds”.

B14: ALB-5 (VHH)
VHH: QVQLQESGGGLVQPGGSLRLTCTASGFAFSSFGMSWVRQPPGKGLEWVSAISADSSTKNYADSVKGRFTISRDNDKKMLYLEMNKLKPEDTAVYHCVIGRGSPSSQGTQVTVSS
notes: as for B1
Take B14: the binding result in the test with human serum albumin is “binds”.

B15: N13-A (VHH)
VHH: DVQLQESGGGSVQPGGSLRLSCAASGFTFKDASMNWVRQAPGKGLEWVSAINGGGTVTDYADPMEGRFTISRDNAKNTLYLQMNSLNFEDTALYYCATGWLFRANNYRGQGTQVTVSS
notes: as for B4
As for B15, the binding result in [6] was “binds”.

B16: anti-carcinoembryonic antigen VHH CEA71 (wild type) (VHH)
VHH: QVQLVESGGGLVQPGGSLRLSCAASGFTFSSSYMSWVRQAPGKGLEWVSGINTDGSFTRYADSVKGRFTISRDNAKNTLYLQMNSLKSEDTALYYCAVGGGLGYGPRGQGTLVTVSS
notes: also called CEA71 WT; CEA wild type VHH
As to B16, the “fold lower concentration at which it binds, against the R103W mutant” value in test [7] is about 10 fold.

B17: CEA72 (VHH)
VHH: QVQLVESGGGLVQPGGSLRLSCAASEFTFSSSYMSWVRQAPGKGLEWVSGINTDGSFTRYADSVKGRFTISRDNAKNTLYLQMNSLKSEDTALYYCAVGGGLGYGPRGQGTQVTVSS
notes: as for B4
Regarding B17, the binding result in [5] is given as “binds”.

B18: N15-B (VHH)
VHH: DVQLQESGGGSVQAGGSLRLACAATAYTYDSNVLGWFRQAPGKEHEGVAVIYTGTRTTYYADSVKGRFTISQDNAKNTVYLQMNSLKPGDTAMYFCAANVRLGGVWSFDYRGQGTQVTVSS
notes: as for B4
Take B18: the binding result in test [6] was “binds”.

B19: N3-A (VHH)
VHH: DVQLQESGGSLVQPGGSLRLSCAASGFTFSAYYMIWVRQAPGKGLEWVSGISANGRDTLYEDSVEGRFAISRDNAKNTLYLQMNSLRSEDTALYYCVIGALITGRRGQGTQVTVSS
notes: as for B4
B19: the binding result in test [6] is “binds”.

B20: C11-B (VHH)
VHH: DVQLQESGGGLVQPGGSLRLSCAASGFIFSNTYMTWVRQAPGKGLEWVSGISADGRDTLYADSVEGRFAISRDNAKNTLYLQMNSLRSEDTALYYCVTGALMTGRRGQGTQVTVSS
notes: as for B4
In test [2], B20 came in with a Kd of 2.6 nM.

B21: ALB-1 (VHH)
VHH: QVQLQESGGGLVQPGGSLRLSCAASGFAFSSFPMTWVRQAPGKGLEWVSGILEGGGSPAYADSVKGRFTISRDDAKNTLYLQMNSLKPEDTAVYYCAKGYVYAREGARSQGTQVTVSS
notes: as for B1
Turning to B21, in the test with human serum albumin, the binding result was “binds”.

For the origin of these results see patent US20120172578A1 (VLAAMS INTERUNIVERSITAIR INSTITUUT VOOR BIOTECHNOLOGIE, published 2012).
